Target: T1, Aβ42-GFP (Homo sapiens, UniProt P05067)
T1 construct: a chimeric fusion of the human Aβ(1-42) peptide (Aβ42) with GFP; expressed in transfected cells; host or cells: E. coli BL21(DE3)
Assay: High-throughput sequencing of pSICLOPPS vectors isolated after bacterial sorting for enhanced Aβ42-GFP fluorescence
Conditions: for Reads/Total TXXXR reads (%) / Reads/Total pentapeptide reads (%) / Reads/Total peptide reads (%): after the second round of bacterial sorting; for Reads/Total TXXXR reads (%): relative to total TXXXR reads; for Reads/Total pentapeptide reads (%): relative to total pentapeptide reads; for Reads/Total peptide reads (%): relative to total peptide reads; for Number of reads: high-throughput sequencing of isolated pSICLOPPS-NuX1X2X3-X5 vectors after the second round of bacterial sorting for enhanced Aβ42-GFP fluorescence, selected cyclo-TXXXR pentapeptides
Source text: On the other hand, very few bioactive sequences resembling AβC5-34 should exist. […] The peptide-encoding vectors contained in these clones were isolated and the peptide-encoding region of approximately 5.6 million of these plasmids was sequenced using an Ion Torrent high-throughput sequencing platform. […] First, pentapeptides were the dominant peptide species within the sorted pool (FIG. 12D), in agreement with previous observations (FIG. 8G). Second, the most prevalent motif among the selected pentapeptide sequences were TXXXR pentapeptides (˜47% of the selected pentapeptide-encoding pSICLOPPS plasmids; ˜42% of the unique selected pentapeptide sequences) (Table 1), in accordance with previous observations (FIG. 8G). […] At position 2, Thr, Ala, and Val were preferred, while aromatic residues (Phe, Trp, Tyr) were completely excluded from the selected TXXXR peptide pool, in full agreement with our site-directed mutagenesis studies. At the highly variable position 3, the complete absence of the negatively charged amino acids Glu and Asp among the selected sequences was notable (FIG. 12E). […] It is noteworthy, that Lys and Gln residues were practically absent from all positions, while the β sheet-breaking amino acid Pro that is typically included in designed peptide-based inhibitors of amyloid aggregation appeared with strikingly low frequencies (FIG. 12E).
Electrocompetent E. coli BL21(DE3) cells (Novagen, USA) carrying either the expression vector pETSOD1(A4V)-GFP, which produces SOD1(A4V)-GFP under control of the strong bacteriophage T7 promoter, or pETAβ42-GFP, which produces Aβ42-GFP under control of the T7 promoter, were co-transformed with the combined pSICLOPPS-NuX1X2X3-X5 vector library. Approximately 10^8 transformants carrying both the vector library and either pETSOD1(A4V)-GFP or pETAβ42-GFP vectors were harvested, pooled together, and grown in Luria-Bertani (LB) liquid medium containing either 0.005% (pETSOD1(A4F)-GFP) or 0.002% (pETAβ42-GFP) L-arabinose—the inducer of cyclic peptide production—at 37° C. with shaking. When the optical density at 600 nm (OD600) of the bacterial culture was about 0.5, 0.01 (pETSOD1(A4F)-GFP) or 0.1 (pETAβ42-GFP) mM isopropyl-β-D-thiogalactoside (IPTG) was added to the medium to induce overexpression of the reporter. […] The isolated cells were re-grown and screened for additional rounds in an identical manner until the desired enrichment in high-fluorescence clones was achieved.
For the characterization of the initial libraries, a combined pSICLOPPS-NuX1X2X3-X5 vector library was prepared containing approximately equal amounts of each one of the tetra-, penta- and hexapeptide sub-libraries. These samples were digested with NcoI and BsrGI and the resulting ˜250 bp product that contained the variable peptide-encoding region was isolated. High-throughput sequencing analysis was performed using an Ion Torrent high-throughput sequencing platform. From the obtained data, all the sequences with mismatches outside of the variable peptide-encoding region were removed, and only the 12-, 15- or 18-bp-long peptide-encoding sequences were subjected to further analysis. The libraries of the selected cyclic peptides that enhance either SOD1(A4V)-GFP or Aβ42-GFP fluorescence were sequenced in a similar manner, with the only exception being that all sequences including stop codons were discarded from subsequent analysis.

AβC5-242 (TTSTR; cyclic)
Reads/Total TXXXR reads (%): 0.020% | Reads/Total pentapeptide reads (%): 0.009% | Reads/Total peptide reads (%): 0.008% | Number of reads: 376

AβC5-244 (TTRVR; cyclic)
Reads/Total TXXXR reads (%): 0.019% | Reads/Total pentapeptide reads (%): 0.009% | Reads/Total peptide reads (%): 0.008% | Number of reads: 366

AβC5-245 (TTRFR; cyclic)
Reads/Total TXXXR reads (%): 0.019% | Reads/Total pentapeptide reads (%): 0.009% | Reads/Total peptide reads (%): 0.008% | Number of reads: 364

AβC5-248 (TTTHR; cyclic)
Reads/Total TXXXR reads (%): 0.018% | Reads/Total pentapeptide reads (%): 0.008% | Reads/Total peptide reads (%): 0.007% | Number of reads: 339

AβC5-252 (TVIWR; cyclic)
Reads/Total TXXXR reads (%): 0.017% | Reads/Total pentapeptide reads (%): 0.008% | Reads/Total peptide reads (%): 0.007% | Number of reads: 331

AβC5-253 (TTWFR; cyclic)
Reads/Total TXXXR reads (%): 0.017% | Reads/Total pentapeptide reads (%): 0.008% | Reads/Total peptide reads (%): 0.007% | Number of reads: 327

AβC5-255 (TTSRR; cyclic)
Reads/Total TXXXR reads (%): 0.017% | Reads/Total pentapeptide reads (%): 0.008% | Reads/Total peptide reads (%): 0.007% | Number of reads: 325

AβC5-258 (TTSCR; cyclic)
Reads/Total TXXXR reads (%): 0.016% | Reads/Total pentapeptide reads (%): 0.007% | Reads/Total peptide reads (%): 0.007% | Number of reads: 301

AβC5-260 (TTWTR; cyclic)
Reads/Total TXXXR reads (%): 0.016% | Reads/Total pentapeptide reads (%): 0.007% | Reads/Total peptide reads (%): 0.007% | Number of reads: 295

AβC5-262 (TTSSR; cyclic)
Reads/Total TXXXR reads (%): 0.015% | Reads/Total pentapeptide reads (%): 0.007% | Reads/Total peptide reads (%): 0.006% | Number of reads: 286

AβC5-263 (THLAR; cyclic)
Reads/Total TXXXR reads (%): 0.015% | Reads/Total pentapeptide reads (%): 0.007% | Reads/Total peptide reads (%): 0.006% | Number of reads: 284

AβC5-264 (TSGAR; cyclic)
Reads/Total TXXXR reads (%): 0.015% | Reads/Total pentapeptide reads (%): 0.007% | Reads/Total peptide reads (%): 0.006% | Number of reads: 282

AβC5-266 (TTLRR; cyclic)
Reads/Total TXXXR reads (%): 0.014% | Reads/Total pentapeptide reads (%): 0.007% | Reads/Total peptide reads (%): 0.006% | Number of reads: 274

AβC5-270 (TATWR; cyclic)
Reads/Total TXXXR reads (%): 0.014% | Reads/Total pentapeptide reads (%): 0.007% | Reads/Total peptide reads (%): 0.006% | Number of reads: 266

AβC5-272 (TCMWR; cyclic)
Reads/Total TXXXR reads (%): 0.013% | Reads/Total pentapeptide reads (%): 0.006% | Reads/Total peptide reads (%): 0.006% | Number of reads: 254

AβC5-275 (TAHVR; cyclic)
Reads/Total TXXXR reads (%): 0.013% | Reads/Total pentapeptide reads (%): 0.006% | Reads/Total peptide reads (%): 0.005% | Number of reads: 249

AβC5-276 (TSWAR; cyclic)
Reads/Total TXXXR reads (%): 0.013% | Reads/Total pentapeptide reads (%): 0.006% | Reads/Total peptide reads (%): 0.005% | Number of reads: 249

AβC5-278 (TTWLR; cyclic)
Reads/Total TXXXR reads (%): 0.013% | Reads/Total pentapeptide reads (%): 0.006% | Reads/Total peptide reads (%): 0.005% | Number of reads: 241

AβC5-291 (TTLDR; cyclic)
Reads/Total TXXXR reads (%): 0.011% | Reads/Total pentapeptide reads (%): 0.005% | Reads/Total peptide reads (%): 0.005% | Number of reads: 213

AβC5-294 (TTPHR; cyclic)
Reads/Total TXXXR reads (%): 0.011% | Reads/Total pentapeptide reads (%): 0.005% | Reads/Total peptide reads (%): 0.005% | Number of reads: 207

Source: patent US12559863B2, “Macrocyclic modulators of disease associated protein misfolding and aggregation” (RESQ BIOTECH, priority 2017, dated 2026)
